What all share (test): initial rates, A340 decrease or fluorescence
Holding throughout (assay type): biochemical, [Clostridium] symbiosum
Holding throughout (conditions): 20 mM 2-oxoglutarate, 100 mM NH4Cl, 0.1 M potassium phosphate pH 7.0, 25 °C

The test system of data set [1] is T1, NC(=O)C1=CN([C@@H]2O[C@H](COP(=O)(O)OP(=O)(O)OC[C@H]3O[C@@H](n4cnc5c(N)ncnc54)[C@H](O)[C@@H]3O)[C@@H](O)[C@H]2O)C=CC1.
T1 construct: full-length recombinant wild-type gdh in ptac85, expressed in E. coli, purified on Remazol Red Sepharose; no tag mentioned
The source says:
(§1) initial rates, A340 decrease or fluorescence on Clostridium symbiosum NAD^+-specific GDH (CsGDH)

Data set [2] deals with T2, NC(=O)C1=CN([C@@H]2O[C@H](COP(=O)(O)OP(=O)(O)OC[C@H]3O[C@@H](n4cnc5c(N)ncnc54)[C@H](OP(=O)(O)O)[C@@H]3O)[C@@H](O)[C@H]2O)C=CC1.
T2 construct: full-length recombinant wild-type gdh in ptac85, expressed in E. coli, purified on Remazol Red Sepharose; no tag mentioned
Source text: as §1

Substrate in data set [3]: NC(=O)C1=CN([C@@H]2O[C@H](COP(=O)(O)OP(=O)(O)OC[C@H]3O[C@@H](n4cnc5c(N)ncnc54)[C@H](O)[C@@H]3O)[C@@H](O)[C@H]2O)C=CC1
Source text: as §1

Substrate in data set [4]: NC(=O)C1=CN([C@@H]2O[C@H](COP(=O)(O)OP(=O)(O)OC[C@H]3O[C@@H](n4cnc5c(N)ncnc54)[C@H](OP(=O)(O)O)[C@@H]3O)[C@@H](O)[C@H]2O)C=CC1
Source text: as §1

What is called Km is the concentration of substrate that gives half-maximal velocity. The term kcat denotes the maximal rate divided by the concentration of active sites. What is called kcat/Km is the second-order rate constant that governs catalysis at low substrate concentration. In the case of “Clostridium symbiosum NAD^+-specific GDH (CsGDH) ([Clostridium] symbiosum; A243G)”, in data set [1], the Michaelis-Menten constant (Km) was 25 ± 1 µM, the kcat worked out at 65.1 ± 1.6 s⁻¹ and the kcat/Km is 2.6e+06 M⁻¹ s⁻¹. For the same molecule, in data set [2], the Km was found to be 386 ± 50 µM, the catalytic constant (kcat) amounted to 1.87 ± 0.01 s⁻¹ and the kcat/Km is 4840 M⁻¹ s⁻¹.

Consider “Clostridium symbiosum NAD^+-specific GDH (CsGDH) ([Clostridium] symbiosum; D264K)”, for which, in data set [1], the Km was determined as 23 ± 2 µM, the kcat is 80 ± 2.5 s⁻¹ and the kcat/Km is 3.48e+06 M⁻¹ s⁻¹. Besides, in data set [2], the Km was 107 ± 20 µM, the kcat worked out at 26.3 ± 0.35 s⁻¹ and the kcat/Km was found to be 246000 M⁻¹ s⁻¹.

As for “Clostridium symbiosum NAD^+-specific GDH (CsGDH) ([Clostridium] symbiosum; F239S)”, in data set [1], the Michaelis constant (Km) stood at 40 ± 3 µM, the kcat turned out to be 139 ± 5 s⁻¹ and the kcat/Km came to 3.48e+06 M⁻¹ s⁻¹. In data set [2], the Km came out at 230 ± 50 µM, the kcat turned out to be 11.1 ± 0.21 s⁻¹ and the kcat/Km is 48300 M⁻¹ s⁻¹.

Turning to “Clostridium symbiosum NAD^+-specific GDH (CsGDH) ([Clostridium] symbiosum; F239S/P263S)”, in data set [1], the Km was 35 ± 10 µM, the kcat came to 105 ± 4 s⁻¹ and the kcat/Km is 3e+06 M⁻¹ s⁻¹. In data set [2], the Km amounted to 330 ± 20 µM, the kcat came out at 83.3 ± 3.5 s⁻¹ and the kcat/Km is 252000 M⁻¹ s⁻¹.

For the molecule “Clostridium symbiosum NAD^+-specific GDH (CsGDH) ([Clostridium] symbiosum; P263S)”, in data set [1], the Km worked out at 47 ± 103 µM, the kcat is 160 ± 8 s⁻¹ and the kcat/Km was determined as 3.4e+06 M⁻¹ s⁻¹. Further, in data set [2], the Km turned out to be 110 ± 10 µM, the kcat was 62.5 ± 1.6 s⁻¹ and the kcat/Km is 568000 M⁻¹ s⁻¹.

B1: Clostridium symbiosum NAD^+-specific GDH (CsGDH) ([Clostridium] symbiosum) (protein)
chain: SKYVDRVIAEVEKKYADEPEFVQTVEEVLSSLGPVVDAHPEYEEVALLERMVIPERVIEFRVPWEDDNGKVHVNTGYRVQFNGAIGPYKGGLRFAPSVNLSIMKFLGFEQAFKDSLTTLPMGGAKGGSDFDPNGKSDREVMRFCQAFMTELYRHIGPDIDVPAGDLGVGAREIGYMYGQYRKIVGGFYNGVLTGKARSFGGSLVRPEATGYGSVYYVEAVMKHENDTLVGKTVALAGFGNVAWGAAKKLAELGAKAVTLSGPDGYIYDPEGITTEEKINYMLEMRASGRNKVQDYADKFGVQFFPGEKPWGQKVDIIMPCATQNDVDLEQAKKIVANNVKYYIEVANMPTTNEALRFLMQQPNMVVAPSKAVNAGGVLVSGFEMSQNSERLSWTAEEVDSKLHQVMTDIHDGSAAAAERYGLGYNLVAGANIVGFQKIADAMMAQGIAW
notes: full-length recombinant wild-type gdh in ptac85, expressed in E. coli, purified on Remazol Red Sepharose; no tag mentioned
With B1, in data set [3], the Michaelis constant (Km) was 20 ± 1 µM, the kcat was found to be 130.2 ± 3.1 s⁻¹ and the kcat/Km is 6.5e+06 M⁻¹ s⁻¹. For the same molecule, in data set [4], the Km came out at 90 ± 11 µM, the kcat is 2.87 ± 0.11 s⁻¹ and the kcat/Km turned out to be 31900 M⁻¹ s⁻¹.

For the origin of these results see PMC3157743, “An Examination by Site-Directed Mutagenesis of Putative Key Residues in the Determination of Coenzyme Specificity in Clostridial NAD^+-Dependent Glutamate Dehydrogenase” (Enzyme Research, 2011).
